Laboratory results: US6891028 (CEDARS SINAI MEDICAL CENTER, dated 2005)

Molecular target: the molecule itself
Test: anti-FLAG immunoblot of cell lysates, reducing (~105 kDa) against non-reducing (~215 kDa) SDS-PAGE
Description: Transfection and Immunoblotting. CHO-TRVb cells were maintained in F12-nutrient mixture (Gibco-BRL) supplemented with 5% fetal bovine serum. An amino terminal FLAG-tagged TfR2-α cDNA was subcloned into pcDNA3 (Invitrogen, Carlsbad, Calif.). This plasmid (100 μg) was transfected into CHO-TRVb cells using Lipofectin (Gibco-BRL). For transient expression, cells were harvested 48 h after the transfection. We also isolated a stably expressing clone using G418 (200 μg/ml) selection and a standard limiting dilution method. The protein expression was confirmed by immunoblotting using anti-FLAG (M5) antibody
Tf-binding to the TfR2-α Transfected Cells. To analyze the function of TfR2-α, we stably transfected CHO-TRVb cells, which lack functional TfR, with FLAG-tagged TfR2-α. FIGS. 6A, 6B and 6C show the expression and functional analysis of TfR2-α protein. In FIG. 6A, Tf-binding to the cell surface was examined in neomycin resistant control CHO-TRVb cells (left panels), FLAG-tagged TfR2-α stably transfected cells (middle) and TRVb-1,TfR stably transfected cells (right). The cells were incubated with 5 μg/ml of biotinylated human holo-Tf in MEM a media for 30 min on ice. After washing with PBS, the cells were incubated with streptavidin-PE, and analyzed by flow cytometry. […] After transferring to a PVDF membrane, FLAG-fusion proteins were detected by immunoblotting. […]

B1: FLAG-tagged TfR2-α (transferrin receptor 2, α form), expressed on transfected CHO-TRVb cells (receptor)
chain: MERLWGLFQRAQQLSPRSSQTVYQRVEGPRKGHLEEEEEDGEEGAETLAHFCPMELRGPEPLGSRPRQPNLIPWAAAGRRAAPYLVLTALLIFTGAFLLGYVAFRGSCQACGDSVLVVSEDVNYEPDLDFHQGRLYWSDLQAMFLQFLGEGRLEDTIRQTSLRERVAGSAGMAALTQDIRAALSRQKLDHVWTDTHYVGLQFPDPAHPNTLHWVDEAGKVGEQLPLEDPDVYCPYSAIGNVTGELVYAHYGRPEDLQDLRARGVDPVGRLLLVRVGVISFAQKVTNAQDFGAQGVLIYPEPADFSQDPPKPSLSSQQAVYGHVHLGTGDPYTPGFPSFNQTQFPPVASSGLPSIPAQPISADIASRLLRKLKGPVAPQEWQGSLLGSPYHLGPGPRLRLVVNNHRTSTPINNIFGCIEGRSEPDHYVVIGAQRDAWGPGAAKSAVGTAILLELVRTFSSMVSNGFRPRRSLLFISWDGGDFGSVGSTEWLEGYLSVLHLKAVVYVSLDNAVLGDDKFHAKTSPLLTSLIESVLKQVDSPNHSGQTLYEQVVFTNPSWDAEVIRPLPMDSSAYSFTAFVGVPAVEFSFMEDDQAYPFLHTKEDTYENLHKVLQGRLPAVAQAVAQLAGQLLIRLSHDRLLPLDFGRYGDVVLRHIGNLNEFSGDLKARGLTLQWVYSARGDYIRAAEKLRQEIYSSEERDERLTRMYNVRIMRVEFYFLSQYVSPADSPFRHIFMGRGDHTLGALLDHLRLLRSNSSGTPGATSSTGFQESRFRRQLALLTWTLQGAANALSGDVWNIDNNF
notes: The text describes TfR2-α as residues 1-801 (cytoplasmic 1-80, transmembrane 81-104, extracellular 105-801); Expressed from pcDNA3 in TfR-deficient CHO-TRVb cells, both stably and transiently; A disulfide-linked dimer is inferred from the non-reducing immunoblot; also called TfR2 cells; TfR2-α cells; not shown: amino terminal FLAG tag
B1: binds.
